Laboratory results published in patent US20070178095A1 (Eli Lilly, published 2007).
One block for each binder: values may come before it.

Columns and labels:
[1] = target: T1, peptide immunogen ANYCSGESEFVFLQKYPHTHLVHQA (human); assay: ELISA, peptide coated at 2 ug/ml, Fab 0.016-10 ug/ml
T1 construct: For immunization it was conjugated to KLH and a helper T-cell peptide; also called immunogenic peptide; immunogenic polypeptide
T1 peptide: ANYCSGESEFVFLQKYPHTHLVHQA
Description: Each well of two 96-well plates is coated with 70 μl of the peptide immunogen used to generate the Fabs (2 μg/ml in carbonate buffer, pH 9.6). The plates are incubated in a dry oven at 37° C. overnight with the lids removed. The wells are aspirated and washed twice with washing buffer (20 mM Tris (hydroxymethyl) aminomethane, pH 7.4, 0.15 M NaCl, 0.1% Tween-20). The plates are blocked with 200 μl blocking buffer per well (5% BioRad blotting grade milk in the above washing buffer) for 2.5 hours.
The Fabs are diluted into blocking buffer at 10 μg/ml, 2 μg/ml, 0.4 μg/ml, 0.08 μg/ml, and 0.016 μg/ml. A rat anti-myostatin monoclonal antibody (R&D Systems, catalog #MAB788, clone #84214) and a polyclonal anti-myostatin antibody (R&D Systems, catalog #AF788), are used as controls at the above concentrations and are also diluted in blocking buffer. Fifty microliters of each antibody solution is added to the peptide-coated wells in duplicate. The plates are incubated for 1.5 hours at room temperature. The wells are then washed 3 times with washing buffer.
Peroxidase-conjugated secondary antibody (50 μl goat anti-mouse kappa HRP (Southern Biotech) for Fabs, 50 μl mouse anti-rat (Jackson ImmunoResearch) for monoclonal, 50 μl rabbit anti-goat (Jackson ImmunoResearch) for polyclonal, all diluted 1:2000 in blocking buffer is added to each well and incubated for 1 hour at room temperature. The wells are then washed 3 times with washing buffer. Fifty microliters of chromogenic substrate (i.e., OPD substrate) is added to each well and allowed to develop at room temperature for 10 minutes. The reaction is stopped by adding 100 μl 1N HCl to each well. The absorbance of the wells is read at 490 nm.

[2] = target: T2, IGF-1 (R&D Systems 291-G1) (UniProt P05019 49-118); assay: ELISA, growth factor coated at 10 ug/ml, Fab at 10 ug/ml, mean of duplicate wells
T2 construct: Negative control antigen
T2 sequence (P05019 49-118 limits assumed): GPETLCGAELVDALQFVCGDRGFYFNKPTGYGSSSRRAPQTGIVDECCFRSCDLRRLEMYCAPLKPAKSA
Description: (§1) Peroxidase-conjugated secondary antibody (50 μl goat anti-mouse kappa HRP (Southern Biotech) for the Fabs, 50 μl rabbit anti-goat (Jackson ImmunoResearch) for the polyclonal, diluted 1:2000 in blocking buffer) is added to each well and incubated for 1 hour at room temperature. The wells are then washed 3 times with washing buffer. Fifty microliters of chromogenic substrate (i.e., OPD substrate) is added to each well and allowed to develop at room temperature for 10 minutes. The reaction is stopped by adding 100 μl 1N HCl to each well. The absorbance of the wells is read at 490 nm.

[3] = target: T3, Activin A (R&D Systems 338-AC) (UniProt P08476 311-426); assay: as above
T3 sequence (looked up): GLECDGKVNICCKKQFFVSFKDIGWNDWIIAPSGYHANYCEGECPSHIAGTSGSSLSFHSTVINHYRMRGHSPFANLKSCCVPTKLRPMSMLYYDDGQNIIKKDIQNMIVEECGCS
Description: as §1

[4] = target: BMP-2 (R&D Systems 355-BEC/CF) (UniProt P12643 283-396); assay: as above
Sequence of BMP-2 (R&D Systems 355-BEC/CF) (P12643 283-396 limits assumed): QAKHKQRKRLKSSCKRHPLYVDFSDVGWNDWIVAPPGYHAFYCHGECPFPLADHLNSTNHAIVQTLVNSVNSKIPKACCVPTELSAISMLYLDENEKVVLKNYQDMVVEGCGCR
Description: as §1

[5] = target: T4, BMP-6 (R&D Systems 507-BP) (UniProt P22004 382-513, limits assumed); assay: as above
T4 sequence (looked up): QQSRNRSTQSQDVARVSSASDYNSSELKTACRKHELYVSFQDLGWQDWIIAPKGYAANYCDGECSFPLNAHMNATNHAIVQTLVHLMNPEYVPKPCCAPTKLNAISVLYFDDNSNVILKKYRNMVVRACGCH
Description: as §1

[6] = target: T5, BMP-7 (R&D Systems 354-BP) (UniProt P18075 293-431); assay: as above
T5 sequence (looked up): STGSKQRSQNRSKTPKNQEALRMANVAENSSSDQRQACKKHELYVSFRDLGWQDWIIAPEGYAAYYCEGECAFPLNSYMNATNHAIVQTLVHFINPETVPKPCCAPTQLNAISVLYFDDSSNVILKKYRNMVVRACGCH
Description: as §1

[7] = target: T6, BMP-5 (R&D Systems 615-BM) (UniProt P22003 317-454, limits assumed); assay: as above
T6 sequence (looked up): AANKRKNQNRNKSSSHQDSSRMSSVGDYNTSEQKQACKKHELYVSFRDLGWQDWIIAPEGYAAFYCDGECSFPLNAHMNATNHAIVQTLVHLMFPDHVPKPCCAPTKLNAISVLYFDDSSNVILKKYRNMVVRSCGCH
Description: as §1

[8] = target: T7, Activin B (R&D Systems 659-AB) (UniProt P09529 293-407); assay: as above
T7 sequence (looked up): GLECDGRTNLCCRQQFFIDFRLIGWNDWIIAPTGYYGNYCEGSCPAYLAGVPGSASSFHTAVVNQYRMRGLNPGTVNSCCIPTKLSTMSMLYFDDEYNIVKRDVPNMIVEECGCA
Description: as §1

[9] = target: T8, recombinant mouse myostatin (R&D systems, Cat. #788-G8/CF, carrier-free) (mouse, UniProt O08689 268-376); assay: as above
T8 construct: mature; also called GDF-8; GDF-8/myostatin
T8 sequence (looked up): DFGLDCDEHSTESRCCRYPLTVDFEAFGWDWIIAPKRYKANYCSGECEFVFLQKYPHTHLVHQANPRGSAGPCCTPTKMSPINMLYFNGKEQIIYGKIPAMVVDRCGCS
Description: as §1

[10] = target: T9, TGF-beta1 (Peprotech, Inc. 100-21R) (UniProt P01137 279-390); assay: as above
T9 construct: also called TGF-b1
T9 sequence (P01137 279-390 limits assumed): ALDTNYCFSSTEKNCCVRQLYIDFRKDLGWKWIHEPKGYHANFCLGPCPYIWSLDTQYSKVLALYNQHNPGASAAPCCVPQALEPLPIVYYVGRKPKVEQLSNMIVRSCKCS
Description: as §1

[11] = target: TGF-alpha (R&D Systems 239-A) (UniProt P01135 40-89); assay: as above
Sequence of TGF-alpha (R&D Systems 239-A) (P01135 40-89 limits assumed): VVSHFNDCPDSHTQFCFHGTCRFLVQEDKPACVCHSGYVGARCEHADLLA
Description: as §1

[12] = target: T10, recombinant human GDF-11 (Peprotech, Inc., Cat. # 120-11, carrier-free) (human, UniProt O95390 299-407); assay: as above
T10 construct: also called BMP-11
T10 sequence (looked up): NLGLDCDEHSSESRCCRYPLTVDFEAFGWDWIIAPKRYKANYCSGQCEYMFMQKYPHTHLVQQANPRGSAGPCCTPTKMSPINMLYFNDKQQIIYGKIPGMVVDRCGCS
Description: as §1

[13] = target: T11, TGF-beta2 (Peprotech, Inc. 100-35) (UniProt P61812 303-414); assay: as above
T11 construct: also called TGF-b2
T11 sequence (looked up): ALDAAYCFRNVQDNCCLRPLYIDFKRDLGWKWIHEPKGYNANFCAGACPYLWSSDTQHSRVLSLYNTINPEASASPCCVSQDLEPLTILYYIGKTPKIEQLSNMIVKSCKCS
Description: as §1

binding result [1]: binds
B6: Fab 15 (Fab, V domains shown)
VH: QVTLKESGPGILQSSQTLSLTCSLSGFSLRTSGMSVSWIRQSSGKGLEWLAHIYWDDDKRYNPSLRNRLTISKDTLRNQVFLKITSVGTADTATYYCARRAITTVIGGGTMDYWGQGTSVTVSS
VL: QIVLTQSPAIMSASPGEEVTMTCSASSSINYMHWYQQKSGTSPKRWIYDTSKLASGVPARFSGSGSGTSYSLTISSMEAEDAATYYCQQWNSNPLTFGGGTKLELKR
notes: Mouse Fab, kappa light chain; also called anti-myostatin Fab 15

binding result [1]: binds | absorbance at 490 nm [2]: 0.034 OD 490 nm | absorbance at 490 nm [3]: 0.033 OD 490 nm | absorbance at 490 nm [4]: 0.0345 OD 490 nm | absorbance at 490 nm [5]: 0.0335 OD 490 nm | absorbance at 490 nm [6]: 0.033 OD 490 nm | absorbance at 490 nm [7]: 0.034 OD 490 nm | absorbance at 490 nm [8]: 0.032 OD 490 nm | absorbance at 490 nm [9]: 0.419 OD 490 nm | absorbance at 490 nm [10]: 0.034 OD 490 nm | absorbance at 490 nm [11]: 0.033 OD 490 nm | absorbance at 490 nm [12]: 0.0705 OD 490 nm | absorbance at 490 nm [13]: 0.034 OD 490 nm
B7: Fab 3 (Fab, V domains shown)
VH: QVTLKESGPGILQSSQTLSLTCSLSGFSLRTSGMSVSWIRQSSGKGLEWLAHIYWDDDKRYNPSLRNRLTISKDTLRNQVFLKITSVGTADTATYYCARRAITTVIGGGTMDYWGQGTSVTVSS
VL: QIVLTQSPAIMSASPGEKVTMTCSASSSISYMHWYQQKPGTSPKRWIYDTSKLASGVPARFSGSGSGTSYSLTISSMEAEDAATYYCQQWYSNPLTFGAGTKLELKR
notes: Mouse Fab from a Biosite Omniclonal library, kappa light chain (detected or captured with goat anti-mouse kappa); also called anti-myostatin Fab 3

binding result [1]: binds
B8: Fab 10 (Fab, V domains shown)
VH: QVTLKESGPGILQPSQTLSLTCSLSGFSLRTSGMSVSWIRQSSGKGLEWLAHIYWDDDERYNPSLRNRLTISKDTLRNQVFLKITSVGTADTATYYCARRAITTVIGGGTMDYWGQGTSVTVSS
VL: QVVLTQSPAIMSASPGEKVTMTCSASSSISYMHWYQQKPGTSPKRWIYDTSKLASGVPARFSGSGSGTSYSLTISSMEAEDAATYYCQQWYSNPLTFGAGTKLELKR
notes: Mouse Fab, kappa light chain; also called anti-myostatin Fab 10

Continued, binder first:

B1: Fab 8 (Fab, V domains shown)
VH: QVTLKESGPGILQSSQTLSLTCSLSGFSLRTSGMSVSWIRQSSGKGLEWLAHIYWDDDKRYNPSLRNRLTISKDTLRNQVFLKITSVGTADTATYYCARRAITTVIGGGTMDYWGQGTSVTVSS
VL: QIVLTQSPAIMSASPGEKVTMTCSASSSVSYMHWYQQKSGTSPKRWIYDTSKLASGVPARFSGSGSGTSYSLTISSMEAEDAATYYCQQWSSNPLTFGAGTKLELKR
notes: Mouse Fab, kappa light chain; also called anti-myostatin Fab 8
binding result [1]: binds

B2: Fab 7 (Fab, V domains shown)
VH: QVTLKSGPGILQSSQTLTLTCSLSGFSLTTSGMIVSWIRQSSGRGLEWLAHIYWDDDKRYNPSLRNRLTISKDTLRNQVFLWISSVGTADTATYYCARRAITTVIGGGTMDYWGQGTSVTVSS
VL: QIVLTQSPAIMSASPGEKVTMTCSASSSISYMHWYQQKPGTSPKRWIYDTSKLASGVPARFSGSGSGTSYSLTISSMEAEDAATYYCQQWYSNPLTFGAGTKLELKR
notes: Mouse Fab, kappa light chain; also called anti-myostatin Fab 7
absorbance at 490 nm [2]: 0.034 OD 490 nm | absorbance at 490 nm [3]: 0.0325 OD 490 nm | absorbance at 490 nm [4]: 0.0335 OD 490 nm | absorbance at 490 nm [5]: 0.035 OD 490 nm | absorbance at 490 nm [6]: 0.031 OD 490 nm | absorbance at 490 nm [7]: 0.0345 OD 490 nm | absorbance at 490 nm [8]: 0.031 OD 490 nm | absorbance at 490 nm [9]: 0.358 OD 490 nm | absorbance at 490 nm [10]: 0.032 OD 490 nm | absorbance at 490 nm [11]: 0.0315 OD 490 nm | absorbance at 490 nm [12]: 0.04 OD 490 nm | absorbance at 490 nm [13]: 0.0345 OD 490 nm

B3: Fab 14 (Fab, V domains shown)
VH: QVTLKESGPGILQSSQTLSLTCSLSGFSLRTSGMSVSWIRQSSGKGLEWLAHIYWDDDKRYNPSLRNRLTISKDTLRNQVFLKITSVGTADTATYYCARRAITTVIGGGTMDYWGQGTSVTVSS
VL: QIVLTQSPAIMSASPGEKVTMTCSASSSVSYMHWYQQKPGTSPKRWIYDTSKLASGVPARFSGSGSGTSYSLTISSMEAEDAATYYCQQWYSNPLTFGAGTKLELKR
notes: Mouse Fab, kappa light chain; also called anti-myostatin Fab 14
binding result [1]: binds

B4: Fab 12 (Fab, V domains shown)
VH: QVTLKESGPGMLQSSQTLSLTCSLSGFSLRTSGMSVSWIRQSSGKGLEWLAHIYWDDDKRYNPSLRNRLTISKDTLRNQVFLKITSVGTADTATYYCARRAITTVIGGGTMDYWGQGTSVTVSS
VL: QVVLTQSPAIMSASPGEKVTMTCSASSSVYYMHWYQQRSGASPKRWIYDTSKLASGVPARFSGSGSGTSYSLTISSMEAEDAATYYCQQWTYNPLTFGAGTKLELKR
notes: Mouse Fab, kappa light chain; also called anti-myostatin Fab 12
binding result [1]: binds

B5: Fab 11 (Fab, V domains shown)
VH: QVTLKESGPGILQSSQTLSLTCSLSGFSLRTSGMSVSWIRQSSGKGLEWLAHIYWDDDKRYNPSLRNRLTISKDTLRNQVFLKITSVGTADTATYYCARRAITTVIGGGTMDYWGQGTSVTVSS
VL: QIVLTQSPAIMSASPGEKVTMTCSASSSISYMHWYQQKPGTSPKRWIYDTSKLASGVPARFSGSGSGTSYSLTISSMEAEDAATYYCQQWNSNPLTFGAGTKLELKR
notes: Mouse Fab, kappa light chain; also called anti-myostatin Fab 11
binding result [1]: binds
